Assay results published in patent publication US20190307847A1 (NGM BIOPHARMACEUTICALS, published 2019).

Target: mouse FGFR4/β-klotho complex co-expressed in rat L6 myoblast cells (mouse, UniProt Q03142 17-799; Q99N32 1-1043)
Experiment: cell-based or functional assay

Chain of mouse FGFR4/β-klotho complex co-expressed in rat L6 myoblast cells (Q03142 17-799, chain 1 of 2): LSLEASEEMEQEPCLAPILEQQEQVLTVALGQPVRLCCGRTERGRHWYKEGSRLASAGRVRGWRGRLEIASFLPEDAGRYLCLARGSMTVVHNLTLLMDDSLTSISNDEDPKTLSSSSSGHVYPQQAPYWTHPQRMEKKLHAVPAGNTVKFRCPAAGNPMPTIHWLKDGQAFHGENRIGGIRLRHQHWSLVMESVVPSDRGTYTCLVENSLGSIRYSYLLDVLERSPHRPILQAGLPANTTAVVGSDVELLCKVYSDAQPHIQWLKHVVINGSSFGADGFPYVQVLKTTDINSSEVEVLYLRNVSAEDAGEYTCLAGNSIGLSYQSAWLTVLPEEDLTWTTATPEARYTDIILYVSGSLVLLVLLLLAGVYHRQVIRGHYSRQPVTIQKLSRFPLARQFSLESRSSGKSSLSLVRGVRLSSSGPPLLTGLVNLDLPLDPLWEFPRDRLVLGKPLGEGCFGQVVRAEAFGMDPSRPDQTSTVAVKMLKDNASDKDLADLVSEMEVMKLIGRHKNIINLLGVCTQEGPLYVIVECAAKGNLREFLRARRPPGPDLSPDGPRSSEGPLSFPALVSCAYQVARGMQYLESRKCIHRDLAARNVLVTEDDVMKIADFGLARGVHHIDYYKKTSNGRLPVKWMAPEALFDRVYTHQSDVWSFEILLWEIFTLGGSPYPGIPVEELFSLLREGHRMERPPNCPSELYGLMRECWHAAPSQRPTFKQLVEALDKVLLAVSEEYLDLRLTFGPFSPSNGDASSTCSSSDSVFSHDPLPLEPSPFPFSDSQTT
Chain of mouse FGFR4/β-klotho complex co-expressed in rat L6 myoblast cells (Q99N32 whole entry, chain 2 of 2): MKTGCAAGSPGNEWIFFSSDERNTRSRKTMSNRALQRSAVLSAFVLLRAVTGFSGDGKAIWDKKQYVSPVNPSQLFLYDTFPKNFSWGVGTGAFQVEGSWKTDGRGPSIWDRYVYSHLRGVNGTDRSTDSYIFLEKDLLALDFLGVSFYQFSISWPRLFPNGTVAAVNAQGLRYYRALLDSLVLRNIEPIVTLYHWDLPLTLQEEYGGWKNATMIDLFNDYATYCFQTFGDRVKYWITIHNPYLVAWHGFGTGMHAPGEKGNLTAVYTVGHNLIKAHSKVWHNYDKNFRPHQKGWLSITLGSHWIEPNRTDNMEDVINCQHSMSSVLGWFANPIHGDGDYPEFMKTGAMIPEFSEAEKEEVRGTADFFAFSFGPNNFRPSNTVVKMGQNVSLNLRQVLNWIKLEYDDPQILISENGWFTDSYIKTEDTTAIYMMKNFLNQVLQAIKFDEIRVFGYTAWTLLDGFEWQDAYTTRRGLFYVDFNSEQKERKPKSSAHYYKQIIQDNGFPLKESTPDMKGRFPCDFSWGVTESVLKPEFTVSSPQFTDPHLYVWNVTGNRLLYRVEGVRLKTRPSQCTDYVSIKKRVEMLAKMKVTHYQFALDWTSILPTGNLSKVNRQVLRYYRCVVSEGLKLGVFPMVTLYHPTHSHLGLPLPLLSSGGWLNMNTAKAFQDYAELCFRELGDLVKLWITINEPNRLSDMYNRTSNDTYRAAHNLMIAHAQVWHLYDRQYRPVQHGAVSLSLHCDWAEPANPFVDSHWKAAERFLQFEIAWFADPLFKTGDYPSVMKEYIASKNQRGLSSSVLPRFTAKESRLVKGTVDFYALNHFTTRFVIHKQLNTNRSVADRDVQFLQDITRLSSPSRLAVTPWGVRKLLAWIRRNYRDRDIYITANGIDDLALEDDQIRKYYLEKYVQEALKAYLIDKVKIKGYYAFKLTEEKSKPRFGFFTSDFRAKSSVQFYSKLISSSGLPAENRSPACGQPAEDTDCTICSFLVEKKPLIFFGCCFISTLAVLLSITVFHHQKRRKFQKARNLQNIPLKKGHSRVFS

B1: FGF19 variant M70 (ligand)
chain: MRDSSPLVHYGWGDPIRLRHLYTSGPHGLSSCFLRIRADGVVDCARGQSAHSLLEIKAVALRTVAIKGVHSVRYLCMGADGKMQGLLQYSEEDCAFEEEIRPDGYNVYRSEKHRLPVSLSSAKQRQLYKNRGFLPLSHFLPMLPMVPEEPEDLRGHLESDMFSSPLETDSMDPFGLVTGLEAVRSPSFEK
EC50 (pM), ELK luciferase assay in L6 cells: 38.3 pM | Emax (fold potentiation), ELK luciferase assay in L6 cells: 1.85 fold potentiation
